Our source for the binding result and Kd values is publication PMC11695602 (Communications Biology, 2025).

Test [1] has as its target recombinant human p53 (p53-FLAG) (human, UniProt P04637 1-393). Nature of the test: co-IP.
Test [2] addresses T1, recombinant human CTNNA3 (CTNNA3-FLAG) (human, UniProt Q9UI47-1 1-895).
T1 sequence (looked up): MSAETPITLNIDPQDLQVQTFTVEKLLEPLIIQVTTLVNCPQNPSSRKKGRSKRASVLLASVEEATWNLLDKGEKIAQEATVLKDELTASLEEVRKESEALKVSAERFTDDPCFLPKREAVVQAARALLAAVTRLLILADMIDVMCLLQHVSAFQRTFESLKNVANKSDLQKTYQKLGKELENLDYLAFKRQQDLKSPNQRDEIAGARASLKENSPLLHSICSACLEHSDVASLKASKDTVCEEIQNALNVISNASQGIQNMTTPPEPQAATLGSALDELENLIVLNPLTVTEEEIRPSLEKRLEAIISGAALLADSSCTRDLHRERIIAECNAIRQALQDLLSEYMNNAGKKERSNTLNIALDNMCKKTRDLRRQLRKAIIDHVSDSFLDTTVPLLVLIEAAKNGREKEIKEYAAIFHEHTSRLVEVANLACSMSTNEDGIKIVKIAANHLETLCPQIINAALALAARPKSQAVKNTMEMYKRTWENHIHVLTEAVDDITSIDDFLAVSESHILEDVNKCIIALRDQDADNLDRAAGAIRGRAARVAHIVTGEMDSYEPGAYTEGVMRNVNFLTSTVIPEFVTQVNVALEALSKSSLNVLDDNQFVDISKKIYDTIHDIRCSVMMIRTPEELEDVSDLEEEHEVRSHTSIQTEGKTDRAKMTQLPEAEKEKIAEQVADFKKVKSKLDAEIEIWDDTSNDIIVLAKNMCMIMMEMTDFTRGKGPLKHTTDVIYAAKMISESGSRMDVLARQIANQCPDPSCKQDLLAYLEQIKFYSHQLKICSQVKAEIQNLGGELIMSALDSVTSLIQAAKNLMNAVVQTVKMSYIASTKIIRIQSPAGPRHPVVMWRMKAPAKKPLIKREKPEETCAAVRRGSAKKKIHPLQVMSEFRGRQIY
Nature of the test: co-IP.

Test [3] has as its target T1, recombinant human CTNNA3 (CTNNA3-FLAG). Nature of the test: BLI.
The target is the same in test [4]. Nature of the test: MST.

Chain of recombinant human p53 (p53-FLAG) (P04637 whole entry): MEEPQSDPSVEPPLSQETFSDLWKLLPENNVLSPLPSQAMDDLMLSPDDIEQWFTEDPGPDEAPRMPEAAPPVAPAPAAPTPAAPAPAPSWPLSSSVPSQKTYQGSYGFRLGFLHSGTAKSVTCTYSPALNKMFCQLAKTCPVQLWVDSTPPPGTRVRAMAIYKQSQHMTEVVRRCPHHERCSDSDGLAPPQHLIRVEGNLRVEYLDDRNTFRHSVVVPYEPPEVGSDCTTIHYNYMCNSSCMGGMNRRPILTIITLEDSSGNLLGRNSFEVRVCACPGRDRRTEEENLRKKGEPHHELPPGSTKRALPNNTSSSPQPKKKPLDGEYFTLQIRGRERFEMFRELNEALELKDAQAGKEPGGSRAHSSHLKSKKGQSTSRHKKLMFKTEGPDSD

B1: recombinant human FLAG-tagged fortilin (fortilin-FLAG) (natural protein, UniProt P13693 1-172, looked up)
chain: MIIYRDLISHDEMFSDIYKIREIADGLCLEVEGKMVSRTEGNIDDSLIGGNASAEGPEGEGTESTVITGVDIVMNHHLQETSFTKEAYKKYIKDYMKSIKGKLEEQRPERVKPFMTGAAEQIKHILANFKNYQFFIGENMNPDGMVALLDYREDGVTPYMIFFKDGLEMEKC
Turning to B1, the binding result in test [1] and in test [2] was “binds” each time.

B2: recombinant human fortilin (rh-fortilin), Strep-tagged, biotinylated (natural protein, UniProt P13693 1-172, looked up)
chain: MIIYRDLISHDEMFSDIYKIREIADGLCLEVEGKMVSRTEGNIDDSLIGGNASAEGPEGEGTESTVITGVDIVMNHHLQETSFTKEAYKKYIKDYMKSIKGKLEEQRPERVKPFMTGAAEQIKHILANFKNYQFFIGENMNPDGMVALLDYREDGVTPYMIFFKDGLEMEKC
modifications: biotin
For B2, the dissociation constant Kd in test [3] was determined as 36.1 nM.

B3: recombinant human fortilin (rh-fortilin), Strep-tagged, red-maleimide-labelled (natural protein, UniProt P13693 1-172, looked up)
chain: MIIYRDLISHDEMFSDIYKIREIADGLCLEVEGKMVSRTEGNIDDSLIGGNASAEGPEGEGTESTVITGVDIVMNHHLQETSFTKEAYKKYIKDYMKSIKGKLEEQRPERVKPFMTGAAEQIKHILANFKNYQFFIGENMNPDGMVALLDYREDGVTPYMIFFKDGLEMEKC
modifications: red-maleimide fluorescent dye (Monolith red-maleimide 2nd generation protein labeling kit)
Take B3: the Kd in test [4] came to 33.2 nM.
